The values below come from the supplement of paper PMC7877785.

A short description of the data set: self-splicing fitness, log relative to wild type (ln ratio); higher = more splicing; Tetrahymena group I intron in knt gene, E. coli kanamycin selection, DiMSum; sequences stand for … in CUCUCU…GGAGGGAAAAGUUAUCAGGCAUGCACCUGGUAGCUAGUCUUUAAACCAAUAGAUUGCAUCGGUUUAAAAGGCAAGACCGUCAAAUUGCGGGAAAGGGGUCAACAGCCGUUCAGUACCAAGUCUCAGGGGAAACUUUGAGAUGGCCUUGCAAAGGGUAUGGUAAUAAGCUGACGGACAUGGUCCUAACCACGCAGCCAAGUCCUAAGUCAACAGAUCUUCUGUUGAUAUGGAUGCAGUUCACAGACUAAAUGUCGGUCGGGGAAGAUGUAUUCUUCUCAUAAGAUAUAGUCGGACCUCUCCUUAAUGGGAGCUAGCGGAUGAAGUGAUGCAACACUGGAGCCGCUGGGAACUAAUUUGUAUGCGAAAGUAUAUUGAUUAGUUUUGGAGUACUCGUGGUCG
An outline of the steps: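 DiMSum derived fitness as the error-weighted combination of fold changes across replicates, kanamycin versus no kanamycin, normalised to wild type. E. coli BL21(DE3) held the library, which randomised all eight P1ex-region intron nucleotides within the knt kanamycin-resistance gene on pET-22b(+). Six replicate transformations grew overnight at 37°C or 30°C on LB agar with or without 25 μg/mL kanamycin, also containing 100 μg/mL carbenicillin, 50 μM IPTG and 0.2% rhamnose, and pooled colonies were amplicon-sequenced on an Illumina HiSeq 2500.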

± gives the uncertainty stated by the source.

AGACAGCAAUAUUACGCAUA: the “self-splicing fitness (ln)” value is -2.73 ± 0.18 (30 °C) and -1.23 ± 0.11 (37 °C).
Regarding CGCCAGCAAUAUUACGUAUA, the “self-splicing fitness (ln)” value was -4.14 ± 0.23 (30 °C) and -3.42 ± 0.23 (37 °C).
The matching figures for GGACAGCAAUAUUACGUCCU: -4.07 ± 0.22 and -2.66 ± 0.33.
Take CGGCAGCAAUAUUACGUGCC: the “self-splicing fitness (ln)” value (30 °C) is -2.66 ± 0.28.
Regarding AAUUAGCAAUAUUACGUAGA, the “self-splicing fitness (ln)” value by setting is: (30 °C) -1.75 ± 0.14; (37 °C) -2.03 ± 0.17.
In the case of UUAUAGCAAUAUUACGGAUG, the “self-splicing fitness (ln)” value is -2.85 ± 0.16 (30 °C) and -1.09 ± 0.15 (37 °C).
In the same order, the values of AUUUAGCAAUAUUACGAUGC are -1.98 ± 0.23 and -0.497 ± 0.21.
In the same order, the values of GAAGAGCAAUAUUACGGAGG are -2.48 ± 0.2 and -2.01 ± 0.31.
In the case of UACUAGCAAUAUUACGUAUA, the “self-splicing fitness (ln)” value is -2.31 ± 0.29 (30 °C) and -1.19 ± 0.21 (37 °C).
Take UGUGAGCAAUAUUACGGGUA: the “self-splicing fitness (ln)” value is, setting by setting: (30 °C) -2.92 ± 0.2; (37 °C) -2.86 ± 0.31.
In the same order, the values of CAUAAGCAAUAUUACGCCGU are -3.29 ± 0.36 and -1.15 ± 0.19.
In the same order, the values of GCAGAGCAAUAUUACGUGCC are -3.66 ± 0.3 and -2.94 ± 0.3.
In the same order, the values of GAGAAGCAAUAUUACGCUUU are -3.35 ± 0.14 and -2.76 ± 0.14.
In the case of ACGCAGCAAUAUUACGCUAA, the “self-splicing fitness (ln)” value is -1.79 ± 0.08 (30 °C) and -0.352 ± 0.081 (37 °C).
The matching figures for UAUUAGCAAUAUUACGAAAA: -1.68 ± 0.26 and -1.2 ± 0.26.
The matching figures for AGUGAGCAAUAUUACGAAGC: -4.89 ± 0.46 and -1.55 ± 0.33.
As for GAGCAGCAAUAUUACGACCG, the “self-splicing fitness (ln)” value runs as follows: (30 °C) -2.42 ± 0.12; (37 °C) -1.27 ± 0.15.
In the same order, the values of CGAUAGCAAUAUUACGCUCU are -0.961 ± 0.12 and 0.447 ± 0.12.
Take GUUGAGCAAUAUUACGCUCU: for the setting “30 °C”, the “self-splicing fitness (ln)” value was -2.49 ± 0.47.
Take AGCAAGCAAUAUUACGAGGA: the “self-splicing fitness (ln)” value is -2.86 ± 0.17 (30 °C) and -2.29 ± 0.2 (37 °C).
Consider ACGGAGCAAUAUUACGUGCU, for which the “self-splicing fitness (ln)” value (30 °C) is -2.34 ± 0.19.
Same read-out and setting: under AGUGAGCAAUAUUACGGGAA stands -2.94 ± 0.29.
Turning to GUUCAGCAAUAUUACGUAGG, the “self-splicing fitness (ln)” value was -0.609 ± 0.082 (30 °C) and 0.163 ± 0.1 (37 °C).
In the same order, the values of AUUAAGCAAUAUUACGAUGG are -3.96 ± 0.37 and -1.94 ± 0.26.
The matching figures for GGGUAGCAAUAUUACGGUGG: -2.55 ± 0.27 and -1.61 ± 0.33.
The matching figures for UUCAAGCAAUAUUACGCCGU: -2.25 ± 0.2 and -1.46 ± 0.19.
CGUAAGCAAUAUUACGAGCU: the “self-splicing fitness (ln)” value is -3.7 ± 0.37 (30 °C) and -2.53 ± 0.41 (37 °C).
In the same order, the values of AGUCAGCAAUAUUACGCACU are -2.19 ± 0.12 and -1.42 ± 0.13.
In the same order, the values of UGACAGCAAUAUUACGCGCG are -1.15 ± 0.1 and -0.132 ± 0.11.
The matching figures for AAAUAGCAAUAUUACGGUUA: -0.483 ± 0.077 and -0.546 ± 0.08.
As to CCUCAGCAAUAUUACGUUCU, the “self-splicing fitness (ln)” value (30 °C) was -4.28 ± 0.34 and the “self-splicing fitness (ln)” value (37 °C) was -3.23 ± 0.36.
Turning to GAUUAGCAAUAUUACGUGUC, the “self-splicing fitness (ln)” value (30 °C) is -2.86 ± 0.27 and the “self-splicing fitness (ln)” value (37 °C) is -2.28 ± 0.26.
In the same order, the values of CAGGAGCAAUAUUACGAAGU are -4.19 ± 0.28 and -2.39 ± 0.37.
In the same order, the values of AGAAAGCAAUAUUACGAAGC are -3.61 ± 0.47 and -2.91 ± 0.48.
The matching figures for UGUGAGCAAUAUUACGCACU: -2.44 ± 0.16 and -0.665 ± 0.12.
As for UCACAGCAAUAUUACGUGGA, the “self-splicing fitness (ln)” value was -2.51 ± 0.095 (30 °C) and -2.36 ± 0.1 (37 °C).
The matching figures for AUGUAGCAAUAUUACGGCCA: -0.669 ± 0.21 and -0.586 ± 0.22.
In the same order, the values of ACGAAGCAAUAUUACGGCGG are -0.224 ± 0.089 and 0.0437 ± 0.13.
In the same order, the values of AUCUAGCAAUAUUACGCUAC are -1.85 ± 0.34 and -1.72 ± 0.4.
As for AAUUAGCAAUAUUACGGAAG, the “self-splicing fitness (ln)” value (37 °C) is -0.915 ± 0.42.
In the case of UACCAGCAAUAUUACGAUGA, the “self-splicing fitness (ln)” value by setting is: (30 °C) -0.0346 ± 0.056; (37 °C) -0.119 ± 0.065.
In the same order, the values of GAUCAGCAAUAUUACGCCUU are -0.124 ± 0.12 and 0.438 ± 0.14.
As for UCGCAGCAAUAUUACGUUCG, the “self-splicing fitness (ln)” value was -0.961 ± 0.088 (30 °C) and -0.562 ± 0.094 (37 °C).
Regarding GGGAAGCAAUAUUACGUCGG, the “self-splicing fitness (ln)” value (37 °C) is -0.827 ± 0.18.
For ACUUAGCAAUAUUACGUUAA, the “self-splicing fitness (ln)” value is, setting by setting: (30 °C) -4.2 ± 0.46; (37 °C) -2.02 ± 0.2.
In the same order, the values of CCUCAGCAAUAUUACGACCC are -2.75 ± 0.38 and -2.41 ± 0.49.
In the same order, the values of GCUUAGCAAUAUUACGACGC are -0.0232 ± 0.13 and -0.351 ± 0.16.
The matching figures for GUGCAGCAAUAUUACGAGUG: -2.2 ± 0.15 and -2.11 ± 0.17.
As to GCAAAGCAAUAUUACGCAUU, the “self-splicing fitness (ln)” value is, setting by setting: (30 °C) -2.78 ± 0.12; (37 °C) -1.7 ± 0.14.
In the same order, the values of GAUUAGCAAUAUUACGUUAA are -1.94 ± 0.32 and -1.98 ± 0.3.
With UCUGAGCAAUAUUACGAGUU, the “self-splicing fitness (ln)” value (30 °C) was -2.13 ± 0.25.
For the sequence AGAAAGCAAUAUUACGAUGA, the “self-splicing fitness (ln)” value reads like this: (30 °C) -0.734 ± 0.1; (37 °C) -0.785 ± 0.11.
The matching figures for UUAGAGCAAUAUUACGGCGU: -1.73 ± 0.14 and -1.12 ± 0.22.
With UCAUAGCAAUAUUACGACGC, the “self-splicing fitness (ln)” value was -1.6 ± 0.19 (30 °C) and -0.696 ± 0.21 (37 °C).
The matching figures for CUAAAGCAAUAUUACGACAU: -3.986 ± 0.024 and -2.72 ± 0.039.
In the same order, the values of UAACAGCAAUAUUACGCUAC are -3.37 ± 0.15 and -2.24 ± 0.2.
The matching figures for UUAGAGCAAUAUUACGAUUA: -1.07 ± 0.11 and -0.181 ± 0.13.
Regarding UUAAAGCAAUAUUACGGUUG, the “self-splicing fitness (ln)” value is -1.13 ± 0.071 (30 °C) and -0.199 ± 0.089 (37 °C).
In the same order, the values of AGUGAGCAAUAUUACGGAUG are -3.2 ± 0.24 and -3.06 ± 0.3.
In the same order, the values of CGGAAGCAAUAUUACGCAGA are -1.98 ± 0.33 and -2.01 ± 0.3.
In the same order, the values of GCCUAGCAAUAUUACGGUUA are -1.47 ± 0.11 and -0.443 ± 0.091.
Turning to UCUCAGCAAUAUUACGUCGC, the “self-splicing fitness (ln)” value (30 °C) was -2.22 ± 0.23 and the “self-splicing fitness (ln)” value (37 °C) was -2.47 ± 0.33.
Regarding CGGGAGCAAUAUUACGGGAA, the “self-splicing fitness (ln)” value (37 °C) was -1.85 ± 0.41.
The same measure, in the same setting: with CUCAAGCAAUAUUACGAGGU the figure was -1.19 ± 0.18.
For the sequence AGCAAGCAAUAUUACGUCAA, the “self-splicing fitness (ln)” value by setting is: (30 °C) -1.76 ± 0.13; (37 °C) -1.13 ± 0.11.
The matching figures for CAGUAGCAAUAUUACGGCGU: -2.25 ± 0.12 and -0.753 ± 0.14.
In the same order, the values of UAGCAGCAAUAUUACGUAUC are -3.16 ± 0.16 and -2.87 ± 0.25.
In the same order, the values of CACCAGCAAUAUUACGUCAG are -0.342 ± 0.051 and 0.0517 ± 0.067.
With CGCCAGCAAUAUUACGUACA, the “self-splicing fitness (ln)” value was -2.74 ± 0.2 (30 °C) and -0.166 ± 0.17 (37 °C).
Turning to AAUUAGCAAUAUUACGUUCA, the “self-splicing fitness (ln)” value is -0.618 ± 0.1 (30 °C) and -0.409 ± 0.12 (37 °C).
The matching figures for ACCCAGCAAUAUUACGUACU: -1.12 ± 0.059 and -0.926 ± 0.08.
Regarding GUAAAGCAAUAUUACGAUGU, the “self-splicing fitness (ln)” value was -0.534 ± 0.081 (30 °C) and -0.0801 ± 0.1 (37 °C).
UUAUAGCAAUAUUACGAGAG: where the note is “37 °C”, the “self-splicing fitness (ln)” value is -0.556 ± 0.26.
Regarding UAGGAGCAAUAUUACGUACG, the “self-splicing fitness (ln)” value by setting is: (30 °C) -1.28 ± 0.17; (37 °C) -0.737 ± 0.3.
In the same order, the values of CAACAGCAAUAUUACGUAUC are -1.96 ± 0.16 and -2.75 ± 0.18.
For AAGCAGCAAUAUUACGCGUC, the “self-splicing fitness (ln)” value was -3.03 ± 0.16 (30 °C) and -1.7 ± 0.15 (37 °C).
In the same order, the values of UGAGAGCAAUAUUACGUGUU are -3.49 ± 0.25 and -1.36 ± 0.14.
In the same order, the values of GGACAGCAAUAUUACGGCGA are -0.0139 ± 0.1 and -0.0325 ± 0.11.
